Laboratory results reported in publication PMC4298360.

Key:
[1] = target: murine IL-2Rβγ heterodimeric Fc fusion (knobs-into-holes), biotinylated (murine) (UniProt P16297); assay: SPR; Biacore T200; biotinylated IL2Rβγ-Fc heterodimer immobilised on streptavidin chips; 2-fold dilution series (1.2–300 nM) of IgG-IL-2 injected 2 min, dissociation up to 10 min; global fit, 1:1 interaction model
[2] = target: human IL-2Rβγ heterodimeric Fc fusion (knobs-into-holes), biotinylated (human) (UniProt P14784); assay: as above
Sequence of human IL-2Rβγ heterodimeric Fc fusion (knobs-into-holes), biotinylated (human) (P14784 27-240, chain 1 of 2): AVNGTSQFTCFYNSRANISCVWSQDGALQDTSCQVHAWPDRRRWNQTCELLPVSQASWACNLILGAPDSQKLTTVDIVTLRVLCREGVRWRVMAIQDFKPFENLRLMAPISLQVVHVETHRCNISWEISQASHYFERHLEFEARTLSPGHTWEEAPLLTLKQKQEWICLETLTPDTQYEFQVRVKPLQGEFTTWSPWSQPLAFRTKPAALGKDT
Sequence of human IL-2Rβγ heterodimeric Fc fusion (knobs-into-holes), biotinylated (human) (P31785 23-262, chain 2 of 2, further chain): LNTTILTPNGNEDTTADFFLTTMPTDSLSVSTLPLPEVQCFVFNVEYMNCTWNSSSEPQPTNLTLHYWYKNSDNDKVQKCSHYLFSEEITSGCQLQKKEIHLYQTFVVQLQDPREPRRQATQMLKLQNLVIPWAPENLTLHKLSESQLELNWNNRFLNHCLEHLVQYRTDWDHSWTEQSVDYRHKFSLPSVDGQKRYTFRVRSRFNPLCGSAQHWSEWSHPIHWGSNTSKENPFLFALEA

[3] = target: cynomolgus IL-2Rβγ heterodimeric Fc fusion (knobs-into-holes), biotinylated (cynomolgus) (UniProt Q38J85); assay: as above
[4] = target: murine IL-2Rβγ heterodimeric Fc fusion (knobs-into-holes), biotinylated (murine) (UniProt P16297); assay: SPR; Biacore T200; biotinylated IL2Rβγ-Fc heterodimer immobilised on streptavidin chips; 2-fold dilution series (1.2–300 nM) of IgG-(IL-2)2 injected 2 min, dissociation up to 10 min; global fit, 1:1 interaction model despite bivalent binding: apparent KD
[5] = target: human IL-2Rβγ heterodimeric Fc fusion (knobs-into-holes), biotinylated (human) (UniProt P14784); assay: as above
[6] = target: cynomolgus IL-2Rβγ heterodimeric Fc fusion (knobs-into-holes), biotinylated (cynomolgus) (UniProt Q38J85); assay: as above
[7] = target: human IL-2Rβγ heterodimeric Fc fusion (knobs-into-holes), biotinylated (human) (UniProt P14784)
[8] = target: cynomolgus IL-2Rβγ heterodimeric Fc fusion (knobs-into-holes), biotinylated (cynomolgus) (UniProt Q38J85)

Sequence of IgG-IL-2 (monovalent fusion of wild-type human IL-2 to a non-targeted, effector-silent human IgG1) (P60568 21-153 limits assumed): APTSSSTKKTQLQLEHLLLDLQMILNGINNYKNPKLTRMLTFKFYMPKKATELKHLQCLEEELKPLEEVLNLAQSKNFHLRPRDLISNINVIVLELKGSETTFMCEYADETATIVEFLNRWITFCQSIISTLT
Sequence of IgG-(IL-2)2 (bivalent fusion of two wild-type human IL-2 to a non-targeted, effector-silent human IgG1) (P60568 21-153 limits assumed): as above
Sequence of murine IL-2Rβγ heterodimeric Fc fusion (knobs-into-holes), biotinylated (murine) (P16297 27-240, chain 1 of 2): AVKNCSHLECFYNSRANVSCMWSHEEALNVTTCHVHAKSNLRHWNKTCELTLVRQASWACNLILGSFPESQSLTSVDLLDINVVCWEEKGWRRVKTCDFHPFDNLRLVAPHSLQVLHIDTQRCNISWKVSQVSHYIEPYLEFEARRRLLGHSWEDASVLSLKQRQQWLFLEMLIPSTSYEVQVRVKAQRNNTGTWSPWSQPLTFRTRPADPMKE
Sequence of murine IL-2Rβγ heterodimeric Fc fusion (knobs-into-holes), biotinylated (murine) (P34902 23-263, chain 2 of 2, further chain): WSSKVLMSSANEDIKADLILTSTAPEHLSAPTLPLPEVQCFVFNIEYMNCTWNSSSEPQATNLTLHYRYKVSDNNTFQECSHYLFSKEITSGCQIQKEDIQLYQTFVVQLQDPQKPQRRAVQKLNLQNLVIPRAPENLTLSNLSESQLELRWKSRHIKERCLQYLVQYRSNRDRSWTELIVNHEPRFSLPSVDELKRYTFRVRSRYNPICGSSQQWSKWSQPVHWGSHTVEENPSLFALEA

Kd [1]	Kd [2]	Kd [3]	Kd [4]	Kd [5]	Kd [6]	ED50 of pSTAT5a induction in human Tregs in whole blood (30 min, 37 °C); the receptor meant is the IL-2 receptor on the cells [7]	ED50 of pSTAT5a induction in cynomolgus Tregs in whole blood (30 min, 37 °C); the receptor meant is the IL-2 receptor on the cells [8]	Substance
0.75 nM	0.04 nM	0.18 nM						IgG-IL-2 (monovalent fusion of wild-type human IL-2 to a non-targeted, effector-silent human IgG1) (from UniProt P60568 21-153)
			0.04 nM	0.003 nM	0.04 nM	0.3 pM	0.1 pM	IgG-(IL-2)2 (bivalent fusion of two wild-type human IL-2 to a non-targeted, effector-silent human IgG1) (from UniProt P60568 21-153)
